Source: the supplement of paper PMC10266784

B1: library; numbered along this chain (parent)
chain: MAAAAAAAAEQQSSNGPVKKSMREKAVERRSVNKEHNSNFKAGYIPIDEDRLHKTGLRGRKGNLAICVIILLFILAVINLIITLVIWAVIRIGPNGCDSMEFHESGLLRFKQVSDMGVIHPLYKSTVGGRRNENLVITGNNQPIVFQQGTTKLSVENNKTSITSDIGMQFFDPRTQNILFSTDYETHEFHLPSGVKSLNVQKASTERITSNATSDLNIKVDGRAIVRGNEGVFIMGKTIEFHMGGNMELKAENSIILNGSVMVSTTRLPSSSSGDQLGSGDWVRYKLCMCADGTLFKVQVTSQNMGCQISDNPCGNTH

Variants of: B1
Experiment: SGCB cell-surface expression functional score (HA stain, bin4 vs bin1, normalised to synonymous) (log10 ratio); higher = more cell-surface SGCB (functional)
Protocol: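 Deep mutational scan of full-length human SGCB (YFP-SGCB-HA, NNN codon sublibraries A-F) delivered by lentivirus at low MOI into ADG-HEK293 cells stably expressing SGCA, SGCD and SGCG. YFP-positive cells were stained for surface HA on unpermeabilized cells and FACS-sorted into bins. The functional score is log10(frequency in high bin 4 / frequency in low bin 1), normalised per chunk so that synonymous variants have mean 0 and SD 0.5. Scores are the median over codons and over duplicate biological replicates; scores below -0.5 are called non-functional. Scale: negative means deleterious.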

SGCB cell-surface expression functional score (log10) of substitutions, site by site:
T55: Y 0.15; E -0.18; H 0.01; D 0.39; K -0.06; C 0.27; I 0.07; A -0.43; P 0.19; L 0.08; G 0.16; V -0.07; M 0.6; N 0.75; R 0.21; Q -0.62; F 0.18; W -0.27; S 0.22
E49: V 0.12; K 0.42; T 0.27; W 0.56; Q -0.19; L -0.04; R 0.35; H -0.23; I 0.51; M 0.12; G 0.17; Y 0.09; F 0.11; D 0.02; S 0.15; A 0.29; N 0.48; P 0.54; C 0.3
K54: D -0.71; W 0.69; M -0.19; E 0.02; G 0.21; I 0.01; F -0.13; L 0.21; S 0.14; P -0.04; N 0.23; Y 0.29; T 0.27; C 0.29; A 0.23; Q -0.58; H -0.42; V 0.08; R 0.2
R51: L 0.47; D -0.06; G -0.17; Y 0.17; Q 0.54; W 0.83; H 0; V 0.39; S 0.04; C -0.24; E 0.04; F 0.49; K 0.63; N 0.2; I 0.36; T 0.01; P 0.04; A 0.1; M -0.39
L57: P -0.03; Q -0.03; G 0.28; F 0.06; A 0.45; D -0.4; W 0.44; S 0.11; H -0.36; R 0.07; V 0.2; Y 0.49; M 0.09; C 0.07; E 0.04; N 0.02; T 0.18; I 0.49; K 0.32
G62: R 0.23; T -0.09; Y -0.05; A 0.02; K -0.29; M 0.13; L 0.53; S 0.18; C 0.33; F 0.5; V -0.21; H 0.18; D 0.29; I 0.26; N -0.29; Q 0.34; W -0.11; P 0.36; E 0.11
R58: I 0.13; Y 0.71; E -0.08; K -0.66; S -0.22; W -0.26; F 0.09; D 0.21; H 0.19; A 0.08; Q -0.12; V -0.04; L 0; M -0.15; C -0.55; N 0.17; P 0.27; G 0; T 0.24
D48: Q -0.36; G -0.07; E -0.17; T -0.04; L 0.18; N 0.13; Y 0.4; I 0.19; R -0.06; H 0.33; M 0.77; W 0.22; S 0.3; K -0.09; P 0.18; V 0.07; F 0.37; A 0.6; C 0.13
L64: Y 0.16; H 0.16; M -1.4; A -0.31; T 0.11; R 0.07; F 0.43; D -0.4; G -0.2; K 0.15; C 0.26; S 0.31; W -0.254; P -0.26; E -0.26; N 0.28; Q 0.03; I -0.1; V 0.25
R60: Q 0.38; N 0.1; Y -0.12; A -0.28; C 0.47; L 0.11; H -0.21; K 0.08; D 0.39; S 0.18; W -0.101; E 0.4; P -0.19; G -0.33; F -0.05; T 0.01; V -0.09; I 0.5
H53: G 0.41; P 0.19; A 0.38; F -0.19; Y 0.27; K -0.51; W -0.6; V 0.1; T 0.14; Q 0.39; M 0.08; L -0.05; C -0.27; I 0.12; N 0.08; D -0.16; E -0.28; S -0.22; R 0.29
G56: C -0.17; N -0.1; Q -0.39; W -0.16; R 0.14; Y 0.34; F 0.28; A 0.21; L 0.23; T 0.4; M -0.31; E -0.3; V 0.05; P 0.22; H 0.15; I 0.26; S 0.21; K 0.41; D -0.5
K61: A -0.12; H -0.27; M -0.03; W 0.05; I 0.48; T 0.03; D -0.36; L 0.26; V 0.07; Y 0.64; S 0.07; N -0.39; E -0.08; P -0.2; C 0.35; G 0.03; F 0.7; R -0.23; Q -0.08
I47: N 0.73; R -0.19; Y 0.65; V 0.12; P 0.47; Q 0.68; M 0.47; S 0.29; W -0.62; T 0.58
D50: V -0.03; P -0.16; G 0.3; F 0.27; H 0.24; I 0.07; M 0.2; K 0.54; N 0.29; T 0.44; A 0.14; L 0.12; W -0.47; Y 0; Q 0.04; R 0.28; S 0.26; C 0; E 0.3
L52: E 0.55; P 0.32; T 0.42; G 0.29; S -0.1; V 0.17; H 0.01; A 0.22; W -0.3; Q 0.35; C 0.09; I -0.3; M 0.34; K -0.26; R 0.05; Y 0.25; N 0.27; D 0.39; F 0.04
A65: D 0.08; C 0.32; E -0.2
N63: G 0.13; V -0.44; F 0.08; M -0.11; K 0.24; L 0.03; S -0.25; A -0.08; D -0.06; Y 0.25; W 0.22; R 0.07; I -0.14; C -0.16; P 0.32; H 0.28; Q 0.11; E -0.28; T 0.43
G59: S -0.13; P 0.12; I -0.01; L 0.09; D 0.04; Y 0.17; F 0.13; N 0; Q -0.24; C 0.05; T 0.25; M 0.31; R -0.17; K 0.12; A -0.59; V 0.33; H 0.1; E -0.2
